Consider one molecule from article PMC5552742, “Kinetic and Structural Characterization of the Effects of Membrane on the Complex of Cytochrome b5 and Cytochrome c” (Scientific Reports, 2017).

Conditions in all cases: both partners purified
In test [1] the target is T1, full-length rabbit cytochrome b5 (rabbit, UniProt P00169 1-134).
T1 construct: Uniformly 15N-labelled where it is the observed protein in NMR, unlabelled otherwise; Ferric in NMR; reduced with dithionite (ferrous) for stopped flow; also called cytb 5; cytb5; source: E. coli C41, pLW01 plasmid, purified
The experiment in a line: stopped-flow absorbance kinetics; cytb5 in nanodiscs; 25 °C, anaerobic; pre-reduced cytb5 mixed with ferric cyt c, final 6 uM cytb5 and 6.6 uM cyt c; micro-rates from numerical fit of the scheme binding (k1, k2) then electron transfer (k3).

The target of test [2] is T1, full-length rabbit cytochrome b5. Nature of the test: stopped-flow absorbance kinetics; cytb5 in DMPC/DHPC bicelles; 25 °C, anaerobic; pre-reduced cytb5 mixed with ferric cyt c, final 6 uM cytb5 and 6.6 uM cyt c; micro-rates from numerical fit of the scheme binding (k1, k2) then electron transfer (k3).
Test [3] has the same target. Nature of the test: stopped-flow absorbance kinetics; lipid-free cytb5; 25 °C, anaerobic; pre-reduced cytb5 mixed with ferric cyt c, final 6 uM cytb5 and 6.6 uM cyt c; micro-rates from numerical fit of the scheme binding (k1, k2) then electron transfer (k3); k2 fixed to zero.

The term koff denotes a measure of how fast the partners let go of each other. Read a low koff as slow dissociation.

T1 sequence (P00169 whole entry): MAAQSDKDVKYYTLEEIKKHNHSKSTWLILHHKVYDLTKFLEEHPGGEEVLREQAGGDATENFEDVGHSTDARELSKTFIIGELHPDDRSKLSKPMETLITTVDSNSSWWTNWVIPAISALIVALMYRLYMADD

B1: equine cytochrome c (natural protein)
chain: not shown
notes: Unlabelled in the titrations into 15N-cytb5, in SEC/DLS and in stopped flow (ferric); uniformly 15N-labelled where it is the observed protein in NMR; also called cyt c; horse cyt c; source: obtained through a collaborator, prepared and purified as described previously; 15N-labeled form expressed and purified as reported in the literature
As for B1, the koff in test [1] was 54.54 ± 0.35 s⁻¹; in test [2] it was 46.2 ± 0.86 s⁻¹; in test [3], about 0 s⁻¹.
